Test results published in patent US20240083996A1, “COMPOSITION FOR PROPHYLAXIS OR TREATMENT OF IL-8 RELATED DISEASES” (Chugai Seiyaku Kabushiki Kaisha, priority 2016, published 2024).

Experiments:
Type in all cases: in vivo, cynomolgus monkeys
[1] = system: endometriosis nodular lesions and adhesion
Source text: Female cynomolgus monkeys of 8 to 14 years of age with regular sexual cycle (provided by the Tsukuba Primate Research Center at the National Institutes of Biomedical Innovation, Health and Nutrition) were laparotomized under anesthesia during the period corresponding to the luteal phase. The uterine corpus was removed by dissecting in a V shape. Then, the uterine corpus was cut into 5 to 10 mm cubes while leaving the smooth muscle layer of the uterus, and one and two pieces were transplanted onto the right abdominal wall and left abdominal wall (cranial and caudal sides), respectively, in such a manner that the endometrium part is in contact with the peritoneum by suturing with an absorbable suture and formed the transplant. After excision, the uterus was sutured with absorbable suture. Then, the remaining endometrial tissues were finely cut and suspended in 5 ml of 2 ng/ml Hepatocyte Growth Factor solution (R&D systems), and this was seeded in the peritoneal cavity for transplantation, followed by closure of the abdomen. Anesthesia was performed using balanced anesthesia of ketamine/xylazine (mixed at an adequate ratio of about 2:1); however, anesthesia was maintained with isoflurane depending on the maintenance period of anesthesia. The body temperature was maintained and controlled during surgery using a heating pad and the condition was monitored electrocardiographically. The antagonist Antisedan (at roughly the same amount as that of xylazine) and antibiotic cephradine were administered at the time of awakening after surgery. The pain reliever Zalban was administered for two days after surgery, and the monkeys were observed regularly every day to confirm the absence of post-surgical abnormalities. In laparoscopic observation, anesthesia and post-surgical monitoring were also performed in the same way.
Laparoscopic observation was carried out four months, nine months (3 months after administration), and 12 months (6 months after administration) following the surgical induction of endometriosis described above, and the pathological conditions of endometriosis were assessed as follows.
The abdomen was incised in the median line under anesthesia, and laparoscopic observation was performed by inserting a trocar and then introducing a laparoscope. The laparoscope was connected to a video system (KARL STORZ) and a monitor. The monitor was used for intraperitoneal observation, and the video system was used for recording. Then, the peritoneal cavity was filled with carbon dioxide gas using Intra-abdominal Insufflation Unit (OLYMPUS) to expand the abdomen, and graduated bars and forceps were inserted from the ventral portion. The size of the lesion was measured using the graduated bar or graduated forceps.
The sizes (width, height, and depth) of nodular lesions formed by suturing the endometrial tissues were measured and the volumes were calculated based on: width (mm)×height (mm)×depth (mm). The lesions and adhesion formed by seeding endometrial tissues after fine cutting were assessed for the site, area, and depth of adhesion and the size of lesion by laparoscopic observation based on modified r-AFS score modified for monkeys from the r-AFS score for clinical use. […] The item on adhesion to the vesicouterine pouch was added, because in the monkey model, the frequency of adhesion to the urinary bladder is higher than in humans. The method for assessing adhesion to the urinary bladder was the same scoring as that used for adhesion to the Douglas' pouch. • 2. Since monkey's body and organ sizes are smaller than those of humans, the criteria of lesion size scoring were altered to: <3 mm, 3-10 mm, and >10 mm.
Based on the results of laparoscopic observation four months after induction, the individuals that met the criteria were selected and grouped. The criteria for the selection are as follows: • 1. Engraftment of endometrial transplant confirmed on the laparoscopic observation four months after induction. • 2. […]

adenomyosis lesions = experiment: Adenomyosis complication in surgically-induced endometriosis monkey models; settings: one case per group, compared to the vehicle group (FIG. 37)
Source text: After the final laparoscopic observation six months after the start of antibody administration in surgically-induced endometriosis monkey models, the uteri collected during autopsy were fixed with 10% neutral buffered formalin and HE-stained for observation. Endometrial tissues analogous to those of adenomyosis were strongly seen in the uterus in one case of the vehicle group as well as in one case of the antibody administration group. […] Thus, the monkeys were considered as being a human adenomyosis complication model, and the endometrial tissues in the myometria of these single cases were compared.

post-surgical adhesion = experiment: Adhesion after surgery (area surrounding the incision site) in surgically-induced endometriosis monkey models; settings: 10 mg/kg; two months before versus six months after initiation of administration, five evaluators
Procedure: Specifically, adhesion to the area surrounding the incision site on the abdominal wall was compared before and after administration and evaluated by five evaluators on a three-point scale: (1) Improved, (2) Stable, and (3) Progressed. Ratings with a consensus among three or more of the five evaluators were adopted; otherwise (2) Stable was used. Evaluations were carried out on six monkeys in the vehicle group as well as seven monkeys in the antibody […]/[…]-[…] administration group. […] The monkey with “Progressed” was an individual in which the blood concentration of antibody […]/[…]-[…] had decreased due to anti-antibody production.

[2] = 10 mg/kg i.v. q4w, six months of administration
[3] = Table 26, proliferation lesion, per nodular lesion (animals 112, 105, 106, 121, 119, 123; sites R, L1, L2), 10 mg/kg

B1: H1009/L395-F1974m: H1009-F1974m (SEQ ID NO:36) heavy chain, L395-kOMT light chain; the anti-IL-8 antibody of Table 29 (antibody)
heavy: QVQLVESGGGLVQPGGSLRLSCAASGFTFSDYYLSWVRQAPGKGLEWVGLIRNKDNYHTPEYSASVKGRFTISRDDSKNSLYLTMSDLKTEDTAVYYCARENHRYDVELAYWGQGTLVTVSSASTKGPSVFPLAPSSKSTSGGTAALGCLVKDYFPEPVTVSWNSGALTSGVHTFPAVLQSSGLYSLSSVVTVPSSSLGTQTYICNVNHKPSNTKVDKKVEPKSCDKTHTCPPCPAPELRRGPSVFLFPPKPKDTLMISRTPEVTCVVVDVSHEDPEVKFNWYVDGVEVHNAKTKPREEQYNSTYRVVSVLTVLHQDWLNGKEYKCKVSNKGLPSSIEKTISKAKGQPREPQVYTLPPSREEMTKNQVSLTCLVKGFYPSDIAVEWESNGQPENNYKTTPPVLDSDGSFFLYSKLTVDKSRWQQGNVFSCSVLHEALHAHTTRKELSLSP
light: DIQMTQSPSSLSASVGDRVTITCRASEIIYSYLAWYQQKPGKAPKLLIYKAKTHADGVPSRFSGSGSGTDFTFTISSLQPEDIATYYCKHHFGFPRTFGQGTKVEIKRTVAAPSVFIFPPSDEQLKSGTASVVCLLNNFYPREAKVQWKVDNALQSGNSQESVTEQDSKDSTYSLSSTLTLSKADYEKHKVYACEVTHQGLSSPVTKSFNRGEC
frequency of nodular lesions of type A: proliferative, ≥500 mm3 [1, 2]: 0%
frequency of nodular lesions of type B: proliferative, <500 mm^3 [1, 2]: 8%
frequency of nodular lesions of type C: no change [1, 2]: 33%
frequency of nodular lesions of type D: decreased [1, 2]: 58%
number of nodular lesions of type A: proliferative, ≥500 mm3 / lesions analysed [1, 2]: (0/12)
number of nodular lesions of type B: proliferative, <500 mm^3 / lesions analysed [1, 2]: (1/12)
number of nodular lesions of type C: no change / lesions analysed [1, 2]: (4/12)
number of nodular lesions of type D: decreased / lesions analysed [1, 2]: 7/12 and (7/12)
Atrophy/decrease, stromal cell (P) [1, 3]: ±
Decreased insterstitium (P) [1, 3]: ±
change of size r-AFS score ([1]; after minus before administration, versus vehicle group (FIG. 35-1)): tended to decrease
change of total r-AFS score ([1]; after minus before administration, versus vehicle group, p=0.0070 (FIG. 35-1)): clearly decreased as compared to the vehicle group
change of adhesion score ([1]; after minus before administration, versus vehicle group, p=0.0096 (FIG. 35-1)): clearly decreased as compared to the vehicle group
frequency of deep lesions (endometriosis gland ducts invaded up to the muscle layer of abdominal wall) ([1]; anti-antibody-positive individuals excluded, vehicle group 5/18 lesions): 1/11
muscle tissue regeneration ([1]; autopsy): muscle tissue regeneration, which was not seen in the vehicle group, was observed
histopathology of the grafts and grafted sites (HE staining) ([1]; autopsy after final laparoscopic observation, compared to the vehicle group): atrophic changes of proliferative epithelia and stromal cells as well as reduction of the interstitium whose major component is collagenous fibers was observed
number of lesions with hemosiderin / lesions ([1]; autopsy, vehicle group 9/16): 4/17
frequency of lesions with hemosiderin ([1]; autopsy, vehicle group 56%): 24%
total modified r-AFS score before and after administration ([1]; scores recorded during laparoscopic surgery, Wilcoxon's signed-rank-sum test, P=0.875 (FIG. 35-2)): the score did not change
histopathology of adenomyosis lesions in the uterus (HE staining) (adenomyosis lesions): atrophy of endometrial epithelia in the adenomyosis lesions as well as reduction and atrophy of stromal cells were observed
adhesion to the area surrounding the incision site: Improved (monkeys/group) (post-surgical adhesion): 6/7
adhesion to the area surrounding the incision site: Progressed (monkeys/group) (post-surgical adhesion): 1/7
adhesion to the area surrounding the incision site: Stable (monkeys/group) (post-surgical adhesion): 0/7
